In publication PMC8084935 (Nature chemical biology, 2021):
*: point of attachment. COSH = C-terminal thiocarboxylate, S*

Biological target: the molecule itself
Experiment: native MS

Row | Binder | stoichiometry N
1 | MtThiS-COSH (thiocarboxylated ThiS from Methanothermobacter sp. CaT2) (natural protein) MVIGMKFTVITDDGKKILESGAPRRIKDVLGELEIPIETVVVKKNGEIVIEEEEIFDGDIIEVIRVIYGG-{COSH} | 2

Biological target: MtYcaO (YcaO from Methanothermobacter sp. CaT2), MBP-His tag cut in the assay mixture (Methanothermobacter sp. CaT2)
Experiment: fluorescence polarisation

Row | Binder | EC50
2 | MtTfuA-E67A (enzyme) MHGKKIIIFTGPSLSHTEASSILEAEYRPPVRRGDIQEAMKENPDIIGIIDGVFHQSPAVGHRAIIDAIRRGVKVVGGASMGALRASELSDLGMVGVGRIFRSYLEGEIESDDDVAVAFNPETLEPLSDSLVSIEFNLKRALRRGVIREDDFRKLMNTARNLFYPLRNYRRILHESGIPDDVKESLRSFLESEGRDLKREDALEVIRHIKRLAYTE | 4.9 µM
3 | MtTfuA-V118A (enzyme) MHGKKIIIFTGPSLSHTEASSILEAEYRPPVRRGDIQEAMKENPDIIGIIDGVFHQSPAVGHREIIDAIRRGVKVVGGASMGALRASELSDLGMVGVGRIFRSYLEGEIESDDDAAVAFNPETLEPLSDSLVSIEFNLKRALRRGVIREDDFRKLMNTARNLFYPLRNYRRILHESGIPDDVKESLRSFLESEGRDLKREDALEVIRHIKRLAYTE | > 30 µM
4 | MtTfuA-Y107A (enzyme) MHGKKIIIFTGPSLSHTEASSILEAEYRPPVRRGDIQEAMKENPDIIGIIDGVFHQSPAVGHREIIDAIRRGVKVVGGASMGALRASELSDLGMVGVGRIFRSALEGEIESDDDVAVAFNPETLEPLSDSLVSIEFNLKRALRRGVIREDDFRKLMNTARNLFYPLRNYRRILHESGIPDDVKESLRSFLESEGRDLKREDALEVIRHIKRLAYTE | > 30 µM
5 | MtTfuA-R170A (enzyme) MHGKKIIIFTGPSLSHTEASSILEAEYRPPVRRGDIQEAMKENPDIIGIIDGVFHQSPAVGHREIIDAIRRGVKVVGGASMGALRASELSDLGMVGVGRIFRSYLEGEIESDDDVAVAFNPETLEPLSDSLVSIEFNLKRALRRGVIREDDFRKLMNTARNLFYPLANYRRILHESGIPDDVKESLRSFLESEGRDLKREDALEVIRHIKRLAYTE | > 30 µM
6 | MtTfuA-H65A (enzyme) MHGKKIIIFTGPSLSHTEASSILEAEYRPPVRRGDIQEAMKENPDIIGIIDGVFHQSPAVGAREIIDAIRRGVKVVGGASMGALRASELSDLGMVGVGRIFRSYLEGEIESDDDVAVAFNPETLEPLSDSLVSIEFNLKRALRRGVIREDDFRKLMNTARNLFYPLRNYRRILHESGIPDDVKESLRSFLESEGRDLKREDALEVIRHIKRLAYTE | > 30 µM
7 | MtTfuA-M84A (enzyme) MHGKKIIIFTGPSLSHTEASSILEAEYRPPVRRGDIQEAMKENPDIIGIIDGVFHQSPAVGHREIIDAIRRGVKVVGGASAGALRASELSDLGMVGVGRIFRSYLEGEIESDDDVAVAFNPETLEPLSDSLVSIEFNLKRALRRGVIREDDFRKLMNTARNLFYPLRNYRRILHESGIPDDVKESLRSFLESEGRDLKREDALEVIRHIKRLAYTE | 3.2 µM
8 | MtTfuA-D203A (enzyme) MHGKKIIIFTGPSLSHTEASSILEAEYRPPVRRGDIQEAMKENPDIIGIIDGVFHQSPAVGHREIIDAIRRGVKVVGGASMGALRASELSDLGMVGVGRIFRSYLEGEIESDDDVAVAFNPETLEPLSDSLVSIEFNLKRALRRGVIREDDFRKLMNTARNLFYPLRNYRRILHESGIPDDVKESLRSFLESEGRALKREDALEVIRHIKRLAYTE | 2.9 µM
9 | MtTfuA-R88A (enzyme) MHGKKIIIFTGPSLSHTEASSILEAEYRPPVRRGDIQEAMKENPDIIGIIDGVFHQSPAVGHREIIDAIRRGVKVVGGASMGALAASELSDLGMVGVGRIFRSYLEGEIESDDDVAVAFNPETLEPLSDSLVSIEFNLKRALRRGVIREDDFRKLMNTARNLFYPLRNYRRILHESGIPDDVKESLRSFLESEGRDLKREDALEVIRHIKRLAYTE | > 30 µM
10 | MtTfuA-R206A (enzyme) MHGKKIIIFTGPSLSHTEASSILEAEYRPPVRRGDIQEAMKENPDIIGIIDGVFHQSPAVGHREIIDAIRRGVKVVGGASMGALRASELSDLGMVGVGRIFRSYLEGEIESDDDVAVAFNPETLEPLSDSLVSIEFNLKRALRRGVIREDDFRKLMNTARNLFYPLRNYRRILHESGIPDDVKESLRSFLESEGRDLKAEDALEVIRHIKRLAYTE | 3.1 µM
11 | MtTfuA-F57A (enzyme) MHGKKIIIFTGPSLSHTEASSILEAEYRPPVRRGDIQEAMKENPDIIGIIDGVAHQSPAVGHREIIDAIRRGVKVVGGASMGALRASELSDLGMVGVGRIFRSYLEGEIESDDDVAVAFNPETLEPLSDSLVSIEFNLKRALRRGVIREDDFRKLMNTARNLFYPLRNYRRILHESGIPDDVKESLRSFLESEGRDLKREDALEVIRHIKRLAYTE | 3.8 µM
12 | MtTfuA-L87A (enzyme) MHGKKIIIFTGPSLSHTEASSILEAEYRPPVRRGDIQEAMKENPDIIGIIDGVFHQSPAVGHREIIDAIRRGVKVVGGASMGAARASELSDLGMVGVGRIFRSYLEGEIESDDDVAVAFNPETLEPLSDSLVSIEFNLKRALRRGVIREDDFRKLMNTARNLFYPLRNYRRILHESGIPDDVKESLRSFLESEGRDLKREDALEVIRHIKRLAYTE | > 30 µM
13 | MtTfuA-D208N (enzyme) MHGKKIIIFTGPSLSHTEASSILEAEYRPPVRRGDIQEAMKENPDIIGIIDGVFHQSPAVGHREIIDAIRRGVKVVGGASMGALRASELSDLGMVGVGRIFRSYLEGEIESDDDVAVAFNPETLEPLSDSLVSIEFNLKRALRRGVIREDDFRKLMNTARNLFYPLRNYRRILHESGIPDDVKESLRSFLESEGRDLKRENALEVIRHIKRLAYTE | 3.9 µM
14 | MtTfuA-S16A (enzyme) MHGKKIIIFTGPALSHTEASSILEAEYRPPVRRGDIQEAMKENPDIIGIIDGVFHQSPAVGHREIIDAIRRGVKVVGGASMGALRASELSDLGMVGVGRIFRSYLEGEIESDDDVAVAFNPETLEPLSDSLVSIEFNLKRALRRGVIREDDFRKLMNTARNLFYPLRNYRRILHESGIPDDVKESLRSFLESEGRDLKREDALEVIRHIKRLAYTE | 5.4 µM
15 | MtTfuA-E91Q (enzyme) MHGKKIIIFTGPSLSHTEASSILEAEYRPPVRRGDIQEAMKENPDIIGIIDGVFHQSPAVGHREIIDAIRRGVKVVGGASMGALRASQLSDLGMVGVGRIFRSYLEGEIESDDDVAVAFNPETLEPLSDSLVSIEFNLKRALRRGVIREDDFRKLMNTARNLFYPLRNYRRILHESGIPDDVKESLRSFLESEGRDLKREDALEVIRHIKRLAYTE | > 30 µM
16 | MtTfuA-S83A (enzyme) MHGKKIIIFTGPSLSHTEASSILEAEYRPPVRRGDIQEAMKENPDIIGIIDGVFHQSPAVGHREIIDAIRRGVKVVGGAAMGALRASELSDLGMVGVGRIFRSYLEGEIESDDDVAVAFNPETLEPLSDSLVSIEFNLKRALRRGVIREDDFRKLMNTARNLFYPLRNYRRILHESGIPDDVKESLRSFLESEGRDLKREDALEVIRHIKRLAYTE | 4.1 µM
17 | MtTfuA-E91D (enzyme) MHGKKIIIFTGPSLSHTEASSILEAEYRPPVRRGDIQEAMKENPDIIGIIDGVFHQSPAVGHREIIDAIRRGVKVVGGASMGALRASDLSDLGMVGVGRIFRSYLEGEIESDDDVAVAFNPETLEPLSDSLVSIEFNLKRALRRGVIREDDFRKLMNTARNLFYPLRNYRRILHESGIPDDVKESLRSFLESEGRDLKREDALEVIRHIKRLAYTE | 2.1 µM
18 | MtTfuA-K205M (enzyme) MHGKKIIIFTGPSLSHTEASSILEAEYRPPVRRGDIQEAMKENPDIIGIIDGVFHQSPAVGHREIIDAIRRGVKVVGGASMGALRASELSDLGMVGVGRIFRSYLEGEIESDDDVAVAFNPETLEPLSDSLVSIEFNLKRALRRGVIREDDFRKLMNTARNLFYPLRNYRRILHESGIPDDVKESLRSFLESEGRDLMREDALEVIRHIKRLAYTE | 1.1 µM
19 | MtTfuA-D54A (enzyme) MHGKKIIIFTGPSLSHTEASSILEAEYRPPVRRGDIQEAMKENPDIIGIIAGVFHQSPAVGHREIIDAIRRGVKVVGGASMGALRASELSDLGMVGVGRIFRSYLEGEIESDDDVAVAFNPETLEPLSDSLVSIEFNLKRALRRGVIREDDFRKLMNTARNLFYPLRNYRRILHESGIPDDVKESLRSFLESEGRDLKREDALEVIRHIKRLAYTE | > 30 µM
20 | MtTfuA-D115A (enzyme) MHGKKIIIFTGPSLSHTEASSILEAEYRPPVRRGDIQEAMKENPDIIGIIDGVFHQSPAVGHREIIDAIRRGVKVVGGASMGALRASELSDLGMVGVGRIFRSYLEGEIESADDVAVAFNPETLEPLSDSLVSIEFNLKRALRRGVIREDDFRKLMNTARNLFYPLRNYRRILHESGIPDDVKESLRSFLESEGRDLKREDALEVIRHIKRLAYTE | > 30 µM
